In patent US6645728 (University of California, dated 2003):
Each block holds one binder with its values, some of them ahead of it.

Experiments:
IKKα-T7 = biological target: T1, IKKα-T7 (murine, UniProt Q60680 1-745); experiment: co-immunoprecipitation from 293 lysates, anti-T7 IP, anti-Myc blot
T1 construct: also called T7-IKKα; murine IKKα/CHUK
T1 sequence (looked up): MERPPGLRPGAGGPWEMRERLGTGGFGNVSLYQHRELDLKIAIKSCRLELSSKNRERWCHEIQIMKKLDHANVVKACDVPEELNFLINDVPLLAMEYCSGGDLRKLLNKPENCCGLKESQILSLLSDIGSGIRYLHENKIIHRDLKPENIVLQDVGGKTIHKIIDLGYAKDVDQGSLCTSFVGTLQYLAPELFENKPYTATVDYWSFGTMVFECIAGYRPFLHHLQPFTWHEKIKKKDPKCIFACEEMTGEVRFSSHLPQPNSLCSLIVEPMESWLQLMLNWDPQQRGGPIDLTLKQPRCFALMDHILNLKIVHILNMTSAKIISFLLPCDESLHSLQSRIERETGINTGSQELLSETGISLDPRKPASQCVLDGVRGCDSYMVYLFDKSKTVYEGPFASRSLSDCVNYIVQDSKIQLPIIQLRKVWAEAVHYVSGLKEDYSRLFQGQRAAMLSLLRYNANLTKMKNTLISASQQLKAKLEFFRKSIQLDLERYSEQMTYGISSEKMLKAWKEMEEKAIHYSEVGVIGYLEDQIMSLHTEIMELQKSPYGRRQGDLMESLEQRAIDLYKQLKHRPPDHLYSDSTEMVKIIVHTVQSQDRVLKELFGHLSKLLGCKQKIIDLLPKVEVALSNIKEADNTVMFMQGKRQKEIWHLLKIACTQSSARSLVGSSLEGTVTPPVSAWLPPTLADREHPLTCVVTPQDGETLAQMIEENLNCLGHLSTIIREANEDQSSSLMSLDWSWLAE

NIK-T7 = biological target: T2, NIK-T7 (Homo sapiens (Human), UniProt Q99558 1-947); experiment: as above
T2 construct: Full-length NIK in pEV3S with C-terminal T7 tag; also called pEV-NIK-T7

B1: Myc-N1-578 (other, not shown: small tags and cut ends)
chain: MAVMEMACPGAPGSAVGQQKELPKPKEKTPPLGKKQSSVYKLEAVEKSPVFCGKWEILNDVITKGTAKEGSEAGPAAISIIAQAECENSQEFSPTFSERIFIAGSKQYSQSESLDQIPNNVAHATEGKMARVCWKGKRRSKARKKRKKKSSKSLAHAGVALAKPLPRTPEQESCTIPVQEDESPLGAPYVRNTPQFTKPLKEPGLGQLCFKQLGEGLRPALPRSELHKLISPLQCLNHVWKLHHPQDGGPLPLPTHPFPYSRLPHPFPFHPLQPWKPHPLESFLGKLACVDSQKPLPDPHLSKLACVDSPKPLPGPHLEPSCLSRGAHEKFSVEEYLVHALQGSVSSSQAHSLTSLAKTWAARGSRSREPSPKTEDNEGVLLTEKLKPVDYEYREEVHWATHQLRLGRGSFGEVHRMEDKQTGFQCAVKKVRLEVFRAEELMACAGLTSPRIVPLYGAVREGPWVNIFMELLEGGSLGQLVKEQGCLPEDRALYYLGQALEGLEYLHSRRILHGDVKADNVLLSSDGSHAALCDFGHAVCLQPDGLGKSLLTGDYIPGTETHMAPEVVLGRSCDAKVD
notes: C-terminal deletion mutant of NIK
binding result (IKKα-T7): no binding

B2: Myc-N1-220 (other, not shown: small tags and cut ends)
chain: MAVMEMACPGAPGSAVGQQKELPKPKEKTPPLGKKQSSVYKLEAVEKSPVFCGKWEILNDVITKGTAKEGSEAGPAAISIIAQAECENSQEFSPTFSERIFIAGSKQYSQSESLDQIPNNVAHATEGKMARVCWKGKRRSKARKKRKKKSSKSLAHAGVALAKPLPRTPEQESCTIPVQEDESPLGAPYVRNTPQFTKPLKEPGLGQLCFKQLGEGLRPA
notes: Treated as one construct; also called Myc-N1-200; N1-200
binding result (IKKα-T7): no binding
binding result (NIK-T7): no binding

Continued, values first:

binding result (NIK-T7): no binding
B3: Myc-N570-947 (other, not shown: small tags and cut ends)
chain: GRSCDAKVDVWSSCCMMLHMLNGCHPWTQFFRGPLCLKIASEPPPVREIPPSCAPLTAQAIQEGLRKEPIHRVSAAELGGKVNRALQQVGGLKSPWRGEYKEPRHPPPNQANYHQTLHAQPRELSPRAPGPRPAEETTGRAPKLQPPLPPEPPEPNKSPPLTLSKEESGMWEPLPLSSLEPAPARNPSSPERKATVPEQELQQLEIELFLNSLSQPFSLEEQEQILSCLSIDSLSLSDDSEKNPSKASQSSRDTLSSGVHSWSSQAEARSSSWNMVLARGRPTDTPSYFNGVKVQIQSLNGEHLHIREFHRVKVGDIATGISSQIPAAAFSLVTKDGQPVRYDMEVPDSGIDLQCTLAPDGSFAWSWRVKHGQLENRP

binding result (IKKα-T7): no binding
B4: Myc-N1-366 (other, not shown: small tags and cut ends)
chain: MAVMEMACPGAPGSAVGQQKELPKPKEKTPPLGKKQSSVYKLEAVEKSPVFCGKWEILNDVITKGTAKEGSEAGPAAISIIAQAECENSQEFSPTFSERIFIAGSKQYSQSESLDQIPNNVAHATEGKMARVCWKGKRRSKARKKRKKKSSKSLAHAGVALAKPLPRTPEQESCTIPVQEDESPLGAPYVRNTPQFTKPLKEPGLGQLCFKQLGEGLRPALPRSELHKLISPLQCLNHVWKLHHPQDGGPLPLPTHPFPYSRLPHPFPFHPLQPWKPHPLESFLGKLACVDSQKPLPDPHLSKLACVDSPKPLPGPHLEPSCLSRGAHEKFSVEEYLVHALQGSVSSSQAHSLTSLAKTWAARGSR
notes: as for B1

binding result (IKKα-T7): no binding
B5: Myc-N1-624 (other, not shown: small tags and cut ends)
chain: MAVMEMACPGAPGSAVGQQKELPKPKEKTPPLGKKQSSVYKLEAVEKSPVFCGKWEILNDVITKGTAKEGSEAGPAAISIIAQAECENSQEFSPTFSERIFIAGSKQYSQSESLDQIPNNVAHATEGKMARVCWKGKRRSKARKKRKKKSSKSLAHAGVALAKPLPRTPEQESCTIPVQEDESPLGAPYVRNTPQFTKPLKEPGLGQLCFKQLGEGLRPALPRSELHKLISPLQCLNHVWKLHHPQDGGPLPLPTHPFPYSRLPHPFPFHPLQPWKPHPLESFLGKLACVDSQKPLPDPHLSKLACVDSPKPLPGPHLEPSCLSRGAHEKFSVEEYLVHALQGSVSSSQAHSLTSLAKTWAARGSRSREPSPKTEDNEGVLLTEKLKPVDYEYREEVHWATHQLRLGRGSFGEVHRMEDKQTGFQCAVKKVRLEVFRAEELMACAGLTSPRIVPLYGAVREGPWVNIFMELLEGGSLGQLVKEQGCLPEDRALYYLGQALEGLEYLHSRRILHGDVKADNVLLSSDGSHAALCDFGHAVCLQPDGLGKSLLTGDYIPGTETHMAPEVVLGRSCDAKVDVWSSCCMMLHMLNGCHPWTQFFRGPLCLKIASEPPPVREIPPSCAP
notes: as for B1
